Assay: yeast display, Sf9 membrane polyspecificity reagent, FACS + sequencing; frameworks hold sequencing errors
Outline: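 Genes from sorted yeast were amplified by colony PCR, read by MiSeq 2 × 250 sequencing and filtered on CDR length. These cells carried a synthetic nanobody library in Saccharomyces cerevisiae BJ5465 and were sorted by FACS into low and high (top ~1%) gates on anti-HA and streptavidin fluorescence. Polyreactivity is labelled according to the gate of origin.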

Row | Sequence | polyreactivity (PSR sort gate)
1 | QVQLVESGGGLVQAGGSLRLSCAASGLTFPFYTMGWYRQAPGKERELVAAISRRGGSTYYADSVKGRFTISRDNAKNTDYLQMNSMKPVDTAVYYCAADKYSWYDYWGQGTEVTVSS | low polyreactivity
2 | QVQLVESGGGLVQAGGSLRLSCAASGLTFPHYAMGWYRQAPGKEREFVAVISWSGGSTSYADSVKGRFTISRDNAKNTVYLQMNSLKPEDTAVYYCAAVYRTREWSYYYWGQGTQVTVSS | high polyreactivity
3 | QVQLVESGGGLVQAGGSLRLSCAASGLTFPQYVMGWYRQAPGKERELVASISRSGGNTYYADSVKGRFTISRDNAKNTVYLQMNSLKPEDTAVYYCAAEYIFHYYDIFDYWGQGTQVTVSS | high polyreactivity
4 | QVQLVESGGGLVQAGGSLRLSCAASGLTFPSNAMGWYRQAPGKERELVAAISKRGGRKYYADSVKGRFTISRDNAKNTVYLQMNSLKPEDTAVYYCATPYAYPGTVQYARYNYWGQGTQVTVSS | high polyreactivity
5 | QVQLVESGGGLVQAGGSLRLSCAASGLTFPSNAMGWYRQAPGKERELVAAISKRGGRTYYADSVKGRFTISRDNAKNTVYLQINSLKPEDTAVYYCAAVPWYVSHDFDYWGQGTQVTVSS | high polyreactivity
6 | QVQLVESGGGLVQAGGSLRLSCAASGLTFPYNAMGWYRQAPGKERELVAAISNGGGTYYADSVKGRFTISRDNAKNPVYLQMNSLKPEDTAVYYCAVDEYSRDYWRYYYWGQGTQVTVSS | low polyreactivity
7 | QVQLVESGGGLVQAGGSLRLSCAASGLTFPYYAMGWYRQAPGKERELVASISWSGASTYYADSVKGRSTISRDYAKNTVYLQMNSLKPEDTAVYYCNAGFYGSYDYWGQGTQVTVSS | high polyreactivity
8 | QVQLVESGGGLVQAGGSLRLSCAASGLTFQRYAMGWYRQAHGKERELVAAISYRGSRTYYADSVKGRFTISRDNAKNTVYLQMNSMKPEDSAVYYCNKVRTGYGVTYLVGYWGQGTHVTVSS | high polyreactivity
9 | QVQLVESGGGLVQAGGSLRLSCAASGLTFQSYAMGRYRQAPVKERELVATISNGSSTYYADSVKGRFTFSRDNAKNTVYLQMNSLKPEDTAVYFCAKDYYYSRNPLYGHDYWGHGTQVTVSS | low polyreactivity
10 | QVQLVESGGGLVQAGGSLRLSCAASGLTFQSYAMGWYRQAPGKEMELVATIYNGSSTYYAVSVKGRFTISRDNAKNTDYLQMNSLKPEDTAVYYCAKDYYYSRNALYGHDYWGQVTQVTVSS | low polyreactivity
11 | QVQLVESGGGLVQAGGSLRLSCAASGLTFQTNAMGWYRQAPGKERELVAAISRRGSSTYYADSVKGRFTISRDNAKNTVYLQMNSLKPEDTAVYYCNAVRYLFIYPRYDYWGQGTQVTVAS | high polyreactivity
12 | QVQLVESGGGLVQAGGSLRLSCAASGLTFRAYAMGWYRQAPGKERELVAAITWSGGSTYYADSVKGRFTISRDNAKNTVYLQMNSLKPEDTAVYYCTAVLRAGYWYYSHGYDYWGQGTQVTVSS | low polyreactivity
13 | QVQLVESGGGLVQAGGSLRLSCAASGLTFRKYAMGWYRQAPGKERELVAAITRGGSTNYADSVKGRFTISRDNAKNTVYLQMNSLKPEDTAVYYCNTRPYRPFDYWGQGTQVTVSS | high polyreactivity
14 | QVQLVESGGGLVQAGGSLRLSCAASGLTFRLNAMGWYRQAPGKERELVAAITRGGRTNYADSVKGRFTISRDNAKNTVYLQMNSLKPEDTAVYYCAARYVERHTDYYYWGQGTQVTVSS | low polyreactivity
15 | QVQLVESGGGLVQAGGSLRLSCAASGLTFRRNAMGWYRQAPGKERELVAAISSGGVRTYYADSVKGRFTISRDNAKNTVYLQMNSLKPEDTAVYYCAAEDYAQRYTHYESWGQGTQVTVSS | low polyreactivity
16 | QVQLVESGGGLVQAGGSLRLSCAASGLTFRYYAMGWYRQAPGKERELVAAISSRGASTYYADSVKGRFTISRDNAKNTVYLQMNSLKPEDTAVYYCAVRTYVYHWSFSSLPYDYWGQGTQVTVSS | high polyreactivity
17 | QVQLVESGGGLVQAGGSLRLSCAASGLTFRYYAMGWYRQAPGKERELVAAISWSGGSTYYADSVKGRFTISRDNAKNTVYLQMNSLKPEDTAVYFCNAELYPQWYDSGQTMEYWGQGTQVTVSS | high polyreactivity
18 | QVQLVESGGGLVQAGGSLRLSCAASGLTFSDNAMGWYRQAPGKEREFVAAITRNGGSTRYADSVKGRFTISRDNAKNTVYLQMNSLKPEDTAVYYCAAVPVGYDSDWGYYYWGQGTQVTVSS | low polyreactivity
19 | QVQLVESGGGLVQAGGSLRLSCAASGLTFSDYAMGWYRQAPGKEREFVAALTRNGGSTRYADSVKGRFTISRDNAKNTVYLQMNSLKPEDTAVYYCNADGWGDRFWSNFRFDYWGQGTQVTVSS | low polyreactivity
20 | QVQLVESGGGLVQAGGSLRLSCAASGLTFSLYAMGWYRQAPGKERELVAAISSSGSTYYADSVKGRFTISRDNAKNTVYLQMNSLKPEDTAVYYCAADAPWWIDPIAGNYWGQGTQVTVSS | high polyreactivity
21 | QVQLVESGGGLVQAGGSLRLSCAASGLTFSRYAKGRYRQAPGKERELVAAISSSGTRTYYADSVKGRFTISRDNAKITVYLQMNSLKPEDTAVYYCAARSGGSGGTYGYWGHGTQVTVSS | high polyreactivity
22 | QVQLVESGGGLVQAGGSLRLSCAASGLTFSRYAMGWYRQAPGTERELVAVISRSGGSTYYADSVKGRFTISRDNAKNTVYLQMNSLIPEDTAVYYCAVRAYIKMDYWGQGTQVTVSS | high polyreactivity

Row | Sequence | polyreactivity (PSR sort gate)
23 | QVQLVESGGGLVQAGGSLRLSCAASGLTFSTYAMGWYRQAPGKERELVATITYSGSSTYADSVKGRFTIARDNAKNTVYLQMNSLKPEDTAVYFCAAVTYHGNPSEYFPDTVGFYYWGQGTQVTVSS | low polyreactivity
24 | QVQLVESGGGLVQAGGSLRLSCAASGLTFSVYAMGWYRPAPGKERELVAAISGSGGSTYYADSVKGRFTISRDNAKNTVYLQMNSLKPEDTAVYYCAARYDVHYDGMDYWGQGTQVTLSS | low polyreactivity
25 | QVQLVESGGGLVQAGGSLRLSCAASGLTFSYYAMGWYRPAPGKERELVAAITSSGGNTYYADSVKGRFTISRDNEKNTVYLQMNSLKPEETAVYYCNARRYLRGYGYGYWGQGTQVTVSS | high polyreactivity
26 | QVQLVESGGGLVQAGGSLRLSCAASGLTFSYYAMGWYRQAPGKERELVAVISYSGSSTYYADSVKGRFTISRDNAKNTVYLQMNSLKPEDTAVYYCAAYLYPRGKGAYDFYYWGQGTQVTVSA | high polyreactivity
27 | QVQLVESGGGLVQAGGSLRLSCAASGLTFTDYAMGWNRQAPGKERELVAGIWDGGSTYYADSVNGRFTISRDNPKNTVYLLMNSLKPEDTAVYYCAARYAGGFYYWGQGTQVTVSS | high polyreactivity
28 | QVQLVESGGGLVQAGGSLRLSCAASGLTFTGYAMGWYRQAPGKERELVASISSRGGSTYYADSVKGRFTISRDNAKITVYLQMNSLKPEDTAVYYCNAVYRGYYSGELDYWGQGTQVTVSS | high polyreactivity
29 | QVQLVESGGGLVQAGGSLRLSCAASGLTFTHYAMGWYRQAPGKEMELVAAISSGGRTYYADSVKGRFTISRDNAKNTVYLQMNSLKPEDTGVYYCAAVTTVYTKYGYWGQGTQVTVSS | high polyreactivity
30 | QVQLVESGGGLVQAGGSLRLSCAASGLTFTSYPMVWYRQAPGKERELVAAIDWSGGRTYYADSVKGRFTISRDNAKNTVYLQMNSLKPEDTAVYYCAAYSRNRALRFNYWGQGTQVTVSS | high polyreactivity
31 | QVQLVESGGGLVQAGGSLRLSCAASGLTFTTYAMGWYRQAPWKERELVAAISRSGGRTYYADSVKGRFTISRDNAKNTVYLHMNSLKPEDTAVYYCNVKGHVLEYYWGQGTQVTVSS | high polyreactivity
32 | QVQLVESGGGLVQAGGSLRLSCAASGLTFTYYAMGWYRQSPGKASEFVAAISSSGSDTYYADSVKGRFTISRDNAKNTVYLQMTSQKPEDTAVYYCAAVLTGLSPDFEYEYWGQGTQVTVSS | low polyreactivity
33 | QVQLVESGGGLVQAGGSLRLSCAASGLTFVAYAMGWYRQAPGKERELVAAITRRGGSTYYADSVTGRFTISRDNAKNTVYLQMNSLKPEDTAVYYCAAEGSYSRNPGFDYWGQGTQVTVSS | high polyreactivity
34 | QVQLVESGGGLVQAGGSLRLSCAASGLTFVDNALGWYRQAPGKDRELVAAISYNGGTTYYADSVKGRFTISRDNAKNTVYLQIISLKPEDTAVFYCAADISVGRYGDMDYWGQGTQVTVSS | low polyreactivity
35 | QVQLVESGGGLVQAGGSLRLSCAASGLTFVKNVMGWYRQAPGKERELVAAISRRGGSTYYADSVKGRFTISRDNAKNTVYLQMNSLKPEDTAVYSCNAVLNHLSYIYPAVGYWGQGTQVTVSS | high polyreactivity
36 | QVQLVESGGGLVQAGGSLRLSCAASGLTFVQYAMGWYRQAPGKERELVATISKSGGFTYYADSVKGRFTISRDNATNTVYLQMNSLKPEDTAVYYCAAAWYYSSRGFHASWGHDYWGQGTQVTVSS | low polyreactivity
37 | QVQLVESGGGLVQAGGSLRLSCAASGLTFVRYAMGWYRQAPGKERELVAVISYSGARTYYADSVKGRFTISRDNAKNTVYLQMNSLKPEDTAVYYCAARQYTTGKYDSWGQGTQVTVSS | high polyreactivity
38 | QVQLVESGGGLVQAGGSLRLSCAASGLTFVYYAMGWYRQAPGKERELVAVISSSGGSTYYADSVKGRFTISRDNAKNTVYLQMNSLKPEDTAVYYCAAPRQVYYQTDNDYWGQGTQVTVSS | high polyreactivity
39 | QVQLVESGGGLVQAGGSLRLSCAASGLTFVYYTRGWYRQAPGKERELVATITFTGGNTYYADSVKGRFTISRDNAKNTVYLQMNCLKPEDTAVYYCAKDSGPYKAEYDYGGQGTQVTVSS | low polyreactivity
40 | QVQLVESGGGLVQAGGSLRLSCAASGLTFWEYAMGWYRQAPGKERELVAAITWGGNTYYADSVKGRFTISRDNAKNTVYLQMNSLKPEDTAVYYCAARGYYLTGGFRRYYYWGQGTQVTVSS | high polyreactivity
41 | QVQLVESGGGLVQAGGSLRLSCAASGLTFWPYVMGWYRQAPGKERELVAAIDDTGITYYADSVKGRFTISRDNEKNTVYLQMNTLKPEDTAVYYCATDWDYYFPWIYPSDAGPEDGYCGQGTQVTVSS | low polyreactivity
42 | QVQLVESGGGLVQAGGSLRLSCAASGLTFWRYTMGWYRPAPGKERELVAVITYRGGSTYYADSVKGRFTISRDYAKNTVYLQMNSLKPEDTAVYYCAAGLSTYGLTYDYWGQGTQVTVSS | high polyreactivity
43 | QVQLVESGGGLVQAGGSLRLSCAASGLTFWRYVMGWYRQAPGKERELVATISIGGSTNYADSVKGRVTISRDNAKNTVYLQMNSLKPEDTAVYYCAAKFRGDVFPYYYWGQGTQVTVSS | high polyreactivity
